Earlier results on 3 substances are cited in publication PMC8699243.

Where two headings read alike, the source gives them in different places.

The target of series [1] is plasminogen (Homo sapiens) (UniProt P00747).
Series [2] concerns the target t-PA (Homo sapiens) (UniProt P00750).
For another series, the target named is S100A4 (Homo sapiens) (UniProt P26447).
A further series addresses S100A10 (Homo sapiens) (UniProt P60903).
The target in series [3] is t-PA (Homo sapiens) (UniProt P00750). This is another data set of the same source.
Series [4] has as its target plasminogen (Homo sapiens) (UniProt P00747). This is another data set of the same source.

Sequence of UniProt P00747 (P00747 20-810): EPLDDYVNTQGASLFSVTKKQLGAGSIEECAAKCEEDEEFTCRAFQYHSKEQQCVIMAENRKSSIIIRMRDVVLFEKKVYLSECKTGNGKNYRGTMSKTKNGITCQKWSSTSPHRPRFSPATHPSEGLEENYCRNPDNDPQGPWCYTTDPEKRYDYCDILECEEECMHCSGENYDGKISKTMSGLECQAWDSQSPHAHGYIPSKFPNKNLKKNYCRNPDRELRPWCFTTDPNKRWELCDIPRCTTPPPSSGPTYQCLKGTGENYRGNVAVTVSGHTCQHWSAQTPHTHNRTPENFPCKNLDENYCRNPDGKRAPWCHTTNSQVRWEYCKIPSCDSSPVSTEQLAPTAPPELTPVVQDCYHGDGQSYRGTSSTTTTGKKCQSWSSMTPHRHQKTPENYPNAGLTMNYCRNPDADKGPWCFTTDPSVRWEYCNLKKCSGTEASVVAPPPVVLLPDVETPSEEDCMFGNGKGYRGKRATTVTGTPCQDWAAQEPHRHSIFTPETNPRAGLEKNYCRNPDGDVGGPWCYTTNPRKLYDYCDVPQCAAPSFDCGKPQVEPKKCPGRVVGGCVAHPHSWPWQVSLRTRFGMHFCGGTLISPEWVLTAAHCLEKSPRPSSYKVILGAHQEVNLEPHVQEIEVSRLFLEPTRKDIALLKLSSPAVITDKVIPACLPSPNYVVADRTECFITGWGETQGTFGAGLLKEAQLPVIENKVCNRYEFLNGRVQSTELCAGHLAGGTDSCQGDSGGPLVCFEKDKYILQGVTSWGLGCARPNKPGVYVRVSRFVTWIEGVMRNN
Sequence of UniProt P00750 (P00750 36-562): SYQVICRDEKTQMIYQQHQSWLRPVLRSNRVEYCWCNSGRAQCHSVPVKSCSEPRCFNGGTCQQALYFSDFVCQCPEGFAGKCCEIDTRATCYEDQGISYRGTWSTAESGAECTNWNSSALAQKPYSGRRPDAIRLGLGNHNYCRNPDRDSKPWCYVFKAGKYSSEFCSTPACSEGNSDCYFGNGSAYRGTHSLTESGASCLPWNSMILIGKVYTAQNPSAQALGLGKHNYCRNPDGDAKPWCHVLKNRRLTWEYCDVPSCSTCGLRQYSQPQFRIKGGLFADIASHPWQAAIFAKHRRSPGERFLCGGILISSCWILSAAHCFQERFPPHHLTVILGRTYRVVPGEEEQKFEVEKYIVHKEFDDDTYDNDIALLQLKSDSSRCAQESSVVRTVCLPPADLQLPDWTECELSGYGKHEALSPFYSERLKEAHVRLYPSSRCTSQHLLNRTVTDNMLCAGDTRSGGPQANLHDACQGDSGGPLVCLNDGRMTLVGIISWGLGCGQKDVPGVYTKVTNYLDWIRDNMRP
Sequence of UniProt P26447 (P26447 2-101): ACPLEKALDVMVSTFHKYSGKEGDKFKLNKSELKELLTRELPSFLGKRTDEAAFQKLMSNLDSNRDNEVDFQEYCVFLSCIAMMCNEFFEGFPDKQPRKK

With “AIIt (Annexin A2/S100A10 heterotetramer) (from UniProt P07355)”, the Kd (usually the equilibrium constant for the complex coming apart) in series [1] was 110 nM; in the series with t-PA (Homo sapiens) [2], 680 nM.
For the substance Annexin A2 (from UniProt P07355), the figures for the Kd in the series with S100A4 (Homo sapiens) and in the series with S100A10 (Homo sapiens) were 5000 nM and 13 nM, respectively.
With S100A10 (from UniProt P60903), the Kd was 450 nM in the series with t-PA (Homo sapiens) [3] and 1810 nM in series [4].
